Test results reported in the nanobody polyreactivity screen of Harvey et al. (2022).

Experiment: yeast display, Sf9 membrane polyspecificity reagent, FACS + sequencing; frameworks hold sequencing errors
Summary of the method: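 Using colony PCR, genes from sorted yeast display clones were amplified, then sequenced on MiSeq at 2 × 250 and filtered by CDR length. The clones had been stained with 10% biotinylated, detergent-solubilized Sf9 membrane reagent for 1 hour at 4 °C and sorted by FACS into low and high (top ~1%) gates on anti-HA and streptavidin fluorescence. Polyreactivity labels come from the gate of origin.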

Sequence	polyreactivity (PSR sort gate)
QVQLVESGGGLVQRGCSLRLSCAASGSTFGYYTMGWYRQAPGKERELVSAISYSGGRTFYADSVKGRFTISRDNAKNTVYFQMISLKPEDHAVYYCNTRYIPSYLSHLDYWGQGTQVTVSS	high polyreactivity
QDQLVESGRGLVQAGGSLRLSCAASGSTFDGKAMGWSRQAPGKERELVATISNSGGRSYYADSVKGRFTISRDNAKNTVYLQMNSLKPEETAVYYCAADHPAFGPGYSFDYWGQGTQVTVSS	low polyreactivity
QVQLVESGGGLVQAGGSLRLSCAASRNNYPYYAMGWSRQEPGKERELVAAISGSGERTYYADSVKGRFTISRDNAKNTVFLQMNSLKPEDTAVYYCAAYRRYYGWYEYWGQGTLVTVSS	high polyreactivity
QVQLVDSAGGLVQAGGSLRLSCAASGLTFPPNAMGWYRQAPGKEREFVAVISSGGGSTYYADSVKGRFTISRDNAKNTVYLQMNSLKPEDTAVYYCATEYQDGDTEYYYWGQGTQVTVSS	low polyreactivity
QVQLVESGGGLDQAGGSLRLSCADSGFTSDGYAKGSYTQAPGKEREFVADINSDGSTNYADSVKARFTISRDNAKNTVYLQLNSLIPEDSAVYYCAKDQAAYYLIPWYPLHDYWGQGTQVTLSS	low polyreactivity
QVQLVESGGGLVQAGGSLRLICADSGLIFRWYAMGWYRQAPGKERELVAAISRRGGTTNYADSVKGRFTISRDNAKNTVYLQMNSLKPEDTAVYYCAVSGGFYWGQGTQVTVSS	high polyreactivity
QVQLVESGGGLVQAGGSLRLSCAASGRIFRYYAMGCYRQAPGKERELVAAITRGGSTNYADSVKGRFTISRDNAKNTVYLQMNSLKPEDTAVYYCAAAYRGRYKYYYWGQGSQVTVSS	high polyreactivity
QVQLVESGGGLVQAGGSLRLSCAASGSTFTPYAMGWNRQAPGKERELVAAIRRGGSTNYADSVKGRFTISRDNEKNTVYLQMNSLKPEDTAVYYCAATKRRFVKFDYWGQGTQVTVSS	low polyreactivity
QVQLVESGGGLVQAGGSLRLSCAASGCTFPLYLMGWYRQAPGKERELVAAIDWSGGSTYYADSVKGRFTISRDNAKNTVYLQMNSLKPEDTAVYYCAARYTSLRNYGYDYWGQGTQVTVSS	low polyreactivity
QVQLVESGGGLVQAGGSLRLSCAASGRIFGTNAMGWYRQAPGKERELVAAISRGGNTYYADSVKGRFTISRDNAKNTVYLQMNSLKPEDTAVYYCAARPGSGRSYTSDYWGQGTQVTVSS	high polyreactivity
QDQLVESGGGLVQAGGSLRLSCAASGSTFGYYVMGWYRQAPGKERELVAGISSSGGSTYYADSVKGRFTISRDNAKNTVYLQMNSLKPEDTAVYYCAAVRGTGTRRYDYWGQGTQVTVSS	high polyreactivity
QGQRVESGGGLVQAGGSLRLSCAASGSIFTYAMGGSRQAPGNERELGAAISRSGGRTYYADSGKGRFTISRDNAKNTVSLHMNSLKPEDTAVYYCAALLLKDYDYWGPGTQVTVSS	low polyreactivity
QVQLVESGGGLVQAGGSLRLSCAASGFIFAYYAMGWYRQAPGKERELVARITRGGRTYYADSVKGRFTISRDNAKNTVYLQMNSLKPEDTAVYYCATTGSSYFHSFEYDYWGQGTQVTVSS	low polyreactivity
QVQLVESGGGLVQAGGSLRLSCAASGSTFSRNASGWYRQAPGKERELVAAISRRGDTTYYADSVKGRFTISRDNAKNTVYLQMNSLKPEDTAVYYCNRLTIGSSSYDYWGQGTQVTVSS	high polyreactivity
QDQLVESGGGLVQAGGSLRLSCASSGITIATNAMGWSRQAPGKERELVAAISWSGGSTYYADSVKGRFTISRDNAKNTVFLQMNSLKPEDTAVYYCATGYSVWYDYWGQGTQVTVSS	low polyreactivity
QVQLVESGGGLVQAGGSLRLSCAASGSIFTDNVMGWYRQAPGKERELVAAITYSAASTYYADSVKGRFTISRDNAKNTVYLQMNSLKPEDTAVYYCNARIIYRKWLFRSGTFNYWGQGTQVTVSS	low polyreactivity
QVQLEDSGGCLVQAGGRLRLSCAASGITYGRNTMGRYRQAPGKERELVAAIDSGGNTYADSVKGRFTISRDNAKITVYLQMNSLKPEDTAVYYCAVYGGEFSSYGYWGQGTQVTVSS	low polyreactivity
QVQLVESGGGLVQAGGSLRLSCAASGITFYYYGMGWYRQAPGKERELVAAITTGGNTNYADSVKGRFTISRDNAKNTVYLQMNSLKPEDTAVYYCAAEYRIPYFFTYGYWGQGTQVTVSS	high polyreactivity
QVQLVESGGGLVQAGGSLRLSCAASGFSFARNAMGWYRQAPGKERELVAAISDSGGRTYYADSVKGRFTISRDIAKNTVYLQMNSLKPEDTAVYYCAAALTFRMDYWGQGTQVTVSS	high polyreactivity
QVQLVESGGGLVQAGGSLRLSCAASGITFYRYMGWYRQAPGKERELVASITGRGGSTYYADSVKGRFTISRDNAKNTVYLQMNSLKPEDTAVYYCAAVFPTKSSTWYDYWGQGSQVTVSS	high polyreactivity
QVQLVESGGGLVQAGGSLRLSCAASGSIFSQYAMGWYRQAPGKERELVAAISRSGGRTSYADSVKGRFTISRDNAKNTVYLQMNSLKPEDTAVYYCAARGPTNMGYWGQGTQVTVSS	high polyreactivity
QVQLVESGGGLVQAGGSLRLSCAASGFIFSIYAMGWYRQAPGKERELVAAISGTGSTSYADSVKGRFTISRDNAKNTVYLQMNSLKPEDTAVYYCAKDGPGRLGDDYWGQGTQVTVSS	low polyreactivity

Sequence	polyreactivity (PSR sort gate)
QVQLVESGGGLVQAGGSLRLSCAASGLTFPPNAMGWYRQATGKEREFVAVISSGGGSTYYADSVKVRFTISRDNAKNTVYLQMNSLNPEDTAVYYCATEYQDGETEYYYWGQGTQVTVSS	low polyreactivity
QVQLVESGGGLVQAGGSLRLSCAASGFIFSYYAMGWYRQAPRKERELVAAISKRGGGTYYADSVKGRFTISRDNAKNTVYLQMNSLKPEDTAVYYCNKDGGYGTGSSREYDSWGQGTQVTVSS	high polyreactivity
QVQLVESGGGLVQAGGSLRLSCAASGSIFWGNAMGWYRQAPGKERELVAAIRRGTSTYYADSVKGRFTISRDNAKNTVYLQMNSLKPEDTAVYYCAAEGWTTPTPTSDDNQWWYDYWGQGTQVTVSS	high polyreactivity
QVQLVESGGGVVQAGGSLRLSCAASGRTFGWNTMGWYRQAPGKERELVAAISYSTGRTYYADSVKGRFTISRDNAKYTVYLQMNSLKPEDTAVYYCAATRPYRYNYWGQGTQVTVSS	high polyreactivity
QVQLVESGGGLVQAGGSLRLSCAASGSTFRGFAMGWYRQAPGKERELVAAISSRGASTHYADSVKGRFTISRDNANNTVYLQLTSLKPEDTAVYYCNKRQVFVSTGVYEFDYWGQGTQVTVSS	low polyreactivity
QVQLVESGGGLVQAGGSLRLSCAASGFTFQNYVMGWYRQAPGKERELVAAINSGGRTYYADSVKGRFTISRDNAKNTVYLQMNSLKPEDTAVYYCNAVQPATYKYRSHVIEYDYWGQGTQVTVSS	high polyreactivity
QVQLVESGGGLVQAGGSLRLSCAASGFIFPTNVMGWYRQAPGKEREFVASITWRGGGTYYADSVKGRFTISRDNAKNTVYLPMNSLKPEDTAVYYCAAGRSWSSYWKYDYWGQGTQVTVSS	low polyreactivity
QVQLVESGGGLVQAGGSLRLSCAASGSIFTYNVMGWYRQAPGKERELVAAIRTRGDRTYYADSVKGRFTISRDNAKNTVYLQMNSLKPEDTAVYYCAAAGSYYSHEYWGQGTQVTVSS	high polyreactivity
QVQLVQSGGCLVQAGGSLRLSCAASGSTFRYKAMGWYRQAPGKERELVATITGSGGSTYYADSVKGRFTISRDNAKNTVYLQMNSLKAEDTAVYYCNARYKRAAWRYDYWGQGTQVSVSS	high polyreactivity
QVQIVESGGGLVQAGGSLRLSCAASGRIFVVIAMGWYRQAPGKERELVATITRGASTYADSVKGRFTISRDNAKNTVYLQMNSLKPEDTAVYYCAAAKRPQVVRYDWTKLEYWGQGTQVTVSS	high polyreactivity
QVQLVESVGGLVQAGGRLRLSCAASGRIFSFYAMGWYRPAPGKEREFVAAITYSGGSSYYADSVKGRFTNSRDNAKKTVYLQMNSLKPEDTAVYYCAARYRYITKYDYWGQGTQVTVSS	high polyreactivity
QVQLVESGGGLVQAGGSLRLSCAASGYIFSKYALGWYRQAPGKERELVASITGRGSRTYYADSVKGRFTISRDNAKNTVYLQMNSLKAEDTAVYYCAADWYGQKTSNRWYFRPGYVYWGQGTQVTVSS	high polyreactivity
QVQLVESGGGLVQAGGSLRLICAASGITFVEYSMGWYRQAPGKERDLVAAISWSGVRTRYADSVKGRFTISRDNAKNTVYLQMNSLKPEDTAVYYCYTVPRGGGGVRILDYWGQGTQVTESS	high polyreactivity
QVQLVESGGGFVQAGASLRLSCAASGSIFRIYAIGWYRQAPGKERELVAAIDSGGSTNYADSVKGRFTISRDNAKNTVYLQMNSLKPEDTAVYYCNVDAWWLSYSEYDYWGQGTQVTVSS	high polyreactivity
QVQLVESGGGLVQAGGSLRLSCAASGSTFTYYAMGWYRQAPGKERELVASISSTTGSTYYADSVKGRFTISRDNAKNTVYLQMNSLKPEDTAVYYCAAERVYPWYRYYYWGQGTQVTVSS	low polyreactivity
QVQLVESGGCLVQAGGSLRLSCADSGLTFTHYTKGWYRQAPGKVRELVAAITTSGGSTYYADSVKGRFTISRDNAKNTVYLQMNSLKPEDTAVYDCDSDVWYWTYIGEYWGQGTQVTVSS	high polyreactivity
QVQLVESAGGLVQAGGSLRLMCAASGNTLSWYALGWYRQAPGKERELVAVITSGGSTNYADSVKGRFTISRDYAKNTVYLQMNSLKPEDTAVYYCNRRPYGFDEFDYWGQGTQVTVSS	low polyreactivity
QVQLVESGGGLVQAGGSLRLSCAASGRIFGGNALGWYRQAPGYARALVAAISWIGGTTYYADSVKGRFTISRDNAKNTVYLQMNSLKPEDTAVYYCAAYRYRPHVHRYYRYDYWGQGTQVTVSS	high polyreactivity
QVQLVESGGGLVQAGGSLRLTCAASGLTFRSYTMRWYRQAPGTERELVAAITFRGGSTYYADSLKGRFTISRDNAKNTVYLQMNSLKPEDTAVYYSAAVAIRRSVPVPRFDYWGQGTQVTVSS	high polyreactivity
QVQLVESGGGLVQAGGSLRLSCAASGLIFSWYDMGWYRQAPGIERELVAAITTDGDDTYYADSVKGRFTISRDNAKNTVYLQLNSLKPEDTAVYYCAADSELAIRYPDRDYDSWGHGTQVTVSS	low polyreactivity
QVQLVESGGGLVQAGGSLRLSCAASGSIFNYYAMGWYRQAPGKERELVAAISWNGGRTYYADSVKGRFTISRDNAKNTVYLQMNSLKPEDTAVYYCNAYPAGYVAHTYDYWGQGTQVTVSS	high polyreactivity
